# Experimental data from patent US20250152759A1, “SINGLE-DOMAIN ANTIBODIES AND VARIANTS THEREOF AGAINST MET” (Wisconsin Alumni Research Foundation, priority 2023, published 2025).
# Entries after “also recorded” stand apart in the source; their conditions may differ. Like-named read-outs stand apart in the source and are kept apart here.
# Columns and labels:
# [1] = tested on: MET, AKT and ERK phosphorylation; experiment: Western blot of MET signaling, NSCLC and HeLa cell lines; type: cell-based, human; conditions: 5 nM, 4 h, positive control
# Experimental: To determine if 1E7-Fc by itself was a therapeutic and inhibited MET signaling, as has been seen with other MET antibodies such as onartuzumab and emibetuzumab (De Mello et al. 2020), we performed a cell proliferation assay and Western blot to query effects of 1E7-Fc on cell behavior and downstream signaling pathways. Cell viability was measured using a panel of the same four cell lines. […] In contrast, treatment with the FDA-approved MET TKI, capmatinib, blocked MET, AKT, and ERK phosphorylation, as anticipated (FIG. 4B).
# Cells were seeded in 10 cm dishes and treated with either control (PBS), 10 nM, or 100 nM 1E7-Fc when cells were reached about 75% confluency, and then cells were harvested 4 h after treatment. Five nM Capmatinib was used as a positive control. Cell lysates were generated as previously described (SenthilKumar et al. 2020).
# [2] = tested on: MET, AKT and ERK phosphorylation; experiment: Immunoblot of MET downstream signaling, Detroit 562 and T-47D; type: cell-based, human; conditions: 5 nM, positive control
# Experimental: To determine if 1E7-Fc by itself was therapeutic and inhibited MET signaling, both cell proliferation assays and western blotting examining MET downstream signaling were evaluated in Detroit […] cell and T-47D as a negative control. The MET tyrosine kinase inhibitor capmatinib was used as a positive control for MET downstream signaling.
# Cells were seeded in 10-cm dishes and treated with either control (i.e., PBS), 10 nM, or 100 nM 1E7-Fc when cells reached about 75% confluency, and then cells were harvested 4, 24, or 48 h after treatment. Capmatinib (5 nM) was used as a positive control for inhibition of MET signaling. Cell lysates were prepared as previously described (Könning et al. 2017). Equal amounts of protein were analyzed by sodium dodecyl-sulfate polyacrylamide gel electrophoresis (SDS-PAGE), transferred to polyvinylidene fluoride membranes, and probed with specific primary antibodies. Targets were detected with horseradish peroxidase (HRP)-conjugated secondary antibodies (BioRad) using Enhanced Chemiluminescence western blot substrates (Pierce) and imaged on a LI-COR Odyssey Fc. The specific antibodies are as listed: MET, phospho-MET (Tyr1234/1235), AKT, phosphor-AKT (Ser473), p44/42 MAPK (Erk1/2), phosphor-p44/42 MAPK (Erk1/2) *Thr202/Try204), GAPDH.
# murine MET = target: T1, murine MET (Mus musculus, UniProt P16056); experiment: Dilution ELISA counter screen on murine MET; type: binding
# T1 construct: biotin (biotinylated)
# Source text: (§1) Next, we evaluated the ability of the three unique VHH clones (1E7, 1A2, and 2G9) to bind murine and rhesus monkey MET by performing ELISA counter screens. […] The three clones were expressed and purified for additional testing to identify a lead VHH. Biolayer interferometry (BLI) was next used to determine the affinity of each VHH domain for MET (FIGS. 3B-D, Table 7). […] The BLI and dilution ELISA data combined determined that 1E7 was the lead clone to for development into a VHH-Fc targeting MET.
# (§2) Dilution ELISA: MaxiSorp plates were prepared as described above. 50 μL of biotinylated human cMET, murine cMET, or rhesus macaque cMET was added to the wells. 1E7 monomeric VHH was serial diluted from 1 μM to 15.6 nM in PBS, 1% BSA < and 0.005% Tween20 and added to each well. Wells with protein but no 1E7 VHH were used as a negative control. 1E7 binding was detected, as described above.
# rhesus macaque MET = target: T2, rhesus macaque MET (Macaca mulatta, UniProt F7H1K4); experiment: Dilution ELISA counter screen on rhesus macaque MET; type: binding
# T2 construct: biotin (biotinylated)
# Source text: as §1, §2
# human MET [3] = target: T3, human MET (Homo sapiens, UniProt P08581); experiment: Biolayer interferometry (BLI) of VHH domains on human MET; type: binding; conditions: for Ka / Kd: BLI curve fit; for Ka: association rate; for binding affinity to human MET (in words): comparison of the three VHH clones
# human MET [4] = target: T3, human MET; experiment: Dilution ELISA on human MET; type: binding; parameters: Single-domain constructs specific to MET extracellular domain were identified from a naïve VHH antibody phage display library; biotin (biotinylated); conditions: for specificity for human versus rhesus macaque and murine MET: ELISA, FIG. 3A
# Source text: as §1, §2
# [5] = dissociation rate, unit not given
# T3 sequence (P08581 25-932 limits assumed): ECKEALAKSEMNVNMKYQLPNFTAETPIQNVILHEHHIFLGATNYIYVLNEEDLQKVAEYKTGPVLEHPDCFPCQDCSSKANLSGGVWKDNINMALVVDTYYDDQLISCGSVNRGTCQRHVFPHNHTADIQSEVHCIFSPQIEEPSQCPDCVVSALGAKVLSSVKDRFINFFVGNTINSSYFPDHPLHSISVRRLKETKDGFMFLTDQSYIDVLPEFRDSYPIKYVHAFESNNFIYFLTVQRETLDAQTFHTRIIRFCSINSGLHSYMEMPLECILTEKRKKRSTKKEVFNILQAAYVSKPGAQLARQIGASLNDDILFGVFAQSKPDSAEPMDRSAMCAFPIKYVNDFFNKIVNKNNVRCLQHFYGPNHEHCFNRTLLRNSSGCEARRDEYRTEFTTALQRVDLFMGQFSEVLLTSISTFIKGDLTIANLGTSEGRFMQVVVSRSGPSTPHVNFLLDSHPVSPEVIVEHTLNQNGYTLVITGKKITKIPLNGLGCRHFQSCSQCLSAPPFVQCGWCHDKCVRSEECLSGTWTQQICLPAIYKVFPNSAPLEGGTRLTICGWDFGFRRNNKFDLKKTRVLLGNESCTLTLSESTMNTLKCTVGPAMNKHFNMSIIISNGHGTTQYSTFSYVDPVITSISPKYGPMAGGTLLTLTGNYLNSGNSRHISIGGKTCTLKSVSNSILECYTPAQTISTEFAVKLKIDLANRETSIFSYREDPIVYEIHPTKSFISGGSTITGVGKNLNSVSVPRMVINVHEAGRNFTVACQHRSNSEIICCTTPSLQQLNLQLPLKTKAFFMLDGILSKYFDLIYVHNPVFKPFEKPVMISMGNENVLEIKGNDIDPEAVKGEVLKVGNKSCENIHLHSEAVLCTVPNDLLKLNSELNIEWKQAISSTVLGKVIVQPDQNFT
# T1 sequence (P16056 25-1379): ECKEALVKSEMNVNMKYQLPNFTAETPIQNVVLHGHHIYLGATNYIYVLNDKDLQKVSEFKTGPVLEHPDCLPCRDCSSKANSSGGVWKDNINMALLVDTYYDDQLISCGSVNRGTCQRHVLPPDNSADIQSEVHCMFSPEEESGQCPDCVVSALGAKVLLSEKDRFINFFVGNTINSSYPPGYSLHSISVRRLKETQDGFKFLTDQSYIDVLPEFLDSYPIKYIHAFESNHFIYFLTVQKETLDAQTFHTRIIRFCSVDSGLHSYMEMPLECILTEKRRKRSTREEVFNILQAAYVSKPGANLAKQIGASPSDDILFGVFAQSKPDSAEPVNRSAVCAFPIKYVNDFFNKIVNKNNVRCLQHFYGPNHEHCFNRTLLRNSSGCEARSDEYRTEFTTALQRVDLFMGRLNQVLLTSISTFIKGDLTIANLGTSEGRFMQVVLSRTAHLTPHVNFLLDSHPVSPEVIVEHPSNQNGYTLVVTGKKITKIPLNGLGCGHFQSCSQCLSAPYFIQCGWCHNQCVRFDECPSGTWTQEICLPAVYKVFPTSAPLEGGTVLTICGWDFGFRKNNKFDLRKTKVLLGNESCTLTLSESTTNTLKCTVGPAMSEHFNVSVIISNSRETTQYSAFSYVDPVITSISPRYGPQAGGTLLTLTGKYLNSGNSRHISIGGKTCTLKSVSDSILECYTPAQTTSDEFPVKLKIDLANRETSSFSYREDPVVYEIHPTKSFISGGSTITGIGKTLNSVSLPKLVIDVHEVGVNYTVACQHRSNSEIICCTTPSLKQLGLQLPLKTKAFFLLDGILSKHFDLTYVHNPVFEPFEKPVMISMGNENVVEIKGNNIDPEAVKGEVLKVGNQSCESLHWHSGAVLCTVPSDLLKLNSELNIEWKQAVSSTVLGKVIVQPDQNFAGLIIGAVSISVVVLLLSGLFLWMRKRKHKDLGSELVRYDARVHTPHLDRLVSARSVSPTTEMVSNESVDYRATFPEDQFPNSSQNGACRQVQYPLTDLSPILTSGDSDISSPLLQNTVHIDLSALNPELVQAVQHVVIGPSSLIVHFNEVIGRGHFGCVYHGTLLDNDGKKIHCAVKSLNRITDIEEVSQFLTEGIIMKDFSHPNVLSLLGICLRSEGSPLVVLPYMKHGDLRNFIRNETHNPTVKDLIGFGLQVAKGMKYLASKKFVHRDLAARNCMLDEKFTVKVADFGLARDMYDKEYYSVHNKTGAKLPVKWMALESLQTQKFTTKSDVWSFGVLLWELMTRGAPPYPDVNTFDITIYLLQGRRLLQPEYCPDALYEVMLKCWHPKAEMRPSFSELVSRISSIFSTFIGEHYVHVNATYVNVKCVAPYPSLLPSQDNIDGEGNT
# T2 sequence (F7H1K4 25-1381): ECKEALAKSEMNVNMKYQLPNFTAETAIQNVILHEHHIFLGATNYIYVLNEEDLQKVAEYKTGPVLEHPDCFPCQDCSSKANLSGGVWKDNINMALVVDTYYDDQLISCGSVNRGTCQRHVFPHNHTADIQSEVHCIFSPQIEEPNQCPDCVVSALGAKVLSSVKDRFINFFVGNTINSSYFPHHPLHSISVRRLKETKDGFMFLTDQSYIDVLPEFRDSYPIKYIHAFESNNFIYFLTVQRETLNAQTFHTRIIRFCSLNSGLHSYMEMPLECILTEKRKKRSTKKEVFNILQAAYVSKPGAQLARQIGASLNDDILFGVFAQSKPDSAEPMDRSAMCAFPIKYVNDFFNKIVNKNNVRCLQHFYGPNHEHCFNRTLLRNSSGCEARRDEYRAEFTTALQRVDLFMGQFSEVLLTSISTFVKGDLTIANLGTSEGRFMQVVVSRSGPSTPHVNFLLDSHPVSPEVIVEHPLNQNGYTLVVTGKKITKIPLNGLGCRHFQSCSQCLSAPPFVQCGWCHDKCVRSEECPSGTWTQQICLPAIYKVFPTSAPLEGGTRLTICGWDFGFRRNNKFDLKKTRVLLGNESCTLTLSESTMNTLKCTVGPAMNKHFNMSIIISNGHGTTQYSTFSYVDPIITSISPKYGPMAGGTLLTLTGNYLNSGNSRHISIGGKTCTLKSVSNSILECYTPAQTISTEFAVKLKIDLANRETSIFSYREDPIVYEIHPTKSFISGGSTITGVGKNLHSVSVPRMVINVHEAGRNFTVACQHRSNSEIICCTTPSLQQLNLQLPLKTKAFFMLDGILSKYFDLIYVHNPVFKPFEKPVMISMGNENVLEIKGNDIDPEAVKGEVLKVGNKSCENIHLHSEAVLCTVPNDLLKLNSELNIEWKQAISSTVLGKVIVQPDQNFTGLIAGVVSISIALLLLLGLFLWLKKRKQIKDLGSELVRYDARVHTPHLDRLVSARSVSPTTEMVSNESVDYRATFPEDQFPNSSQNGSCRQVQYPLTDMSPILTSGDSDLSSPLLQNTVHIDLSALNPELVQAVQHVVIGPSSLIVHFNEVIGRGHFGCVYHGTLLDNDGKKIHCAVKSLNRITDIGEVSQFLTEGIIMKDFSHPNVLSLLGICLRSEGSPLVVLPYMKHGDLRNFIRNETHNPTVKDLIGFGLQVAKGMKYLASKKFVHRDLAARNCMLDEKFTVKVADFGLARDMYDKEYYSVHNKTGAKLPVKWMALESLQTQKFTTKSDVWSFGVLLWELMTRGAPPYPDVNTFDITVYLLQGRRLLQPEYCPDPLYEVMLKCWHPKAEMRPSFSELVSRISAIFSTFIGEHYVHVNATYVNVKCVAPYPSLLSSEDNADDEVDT
Molecule,"effect on MET, AKT and ERK phosphorylation [1]",effect on phosphorylation of MET [2],binding to murine MET (murine MET),binding to rhesus macaque MET (rhesus macaque MET),kon and koff compared to the other clones (human MET [3]; BLI),Ka (human MET [3]; unit not given),Kd (human MET [3]; [5]),"Kd (human MET [3]; nM, read-out: KD) [nM]",binding affinity to human MET (in words) (human MET [3]),"ELISA signal on human MET (human MET [4]; dilution ELISA, unpurified VHH serially diluted)",specificity for human versus rhesus macaque and murine MET (human MET [4])
"CNC(=O)c1ccc(-c2cnc3ncc(Cc4ccc5ncccc5c4)n3n2)cc1F [capmatinib, reference compound]",blocked,effectively blocked,–,–,–,–,–,–,–,–,–
"1E7: anti-MET camelid VHH single-domain antibody from phage display, amino acid sequence SEQ ID NO:22 (protein) VHH: EVQLVESGGGLVQPGGSLRLSCEASGFNFERYDMSWVRQAPGKGPEWVSRLNSFGRSTYYLDSVKGRFTVSRDNAQNMLYLQMNNLKPEDTAVYYCARSTDVSPGLSSWWTYEYDVWGQGTQVTVSS",–,–,modest cross-reactivity; also recorded: minimal binding,modest cross-reactivity; also recorded: minimal binding,highest kon and the lowest koff,1.445 × 10^5,4.045 × 10^−2,27,high affinity; also recorded: highest binding affinity,strongest MET signal; also recorded: saturating ELISA signals,–
"1A2: anti-MET camelid VHH single-domain antibody from phage display, amino acid sequence SEQ ID NO:24 (protein) VHH: EAQLVESGGGLVQPGGSLRLSCEASGFNFERYDMSWVRQAPGKGPEWVSRLNSFGRSTYYLDSVKGRFTVSRDTAKSTFYLQMNNLKPEDAGVYYCARSTDVSPGLSSWWTYEYDVWGQGTQVTVSS",–,–,modest cross-reactivity,modest cross-reactivity,–,1.865 × 10^5,2.869 × 10^−2,43,high affinity; also recorded: weaker binding affinities,–,did not show clear specificity
"2G9: anti-MET camelid VHH single-domain antibody from phage display, amino acid sequence SEQ ID NO:26 (protein) VHH: EVQLVESGGALVQPGGSLRLSCAASGFTFGAYDMVWVRHATGKGPEWISFISNGGEEVSYASSVKDRFTISRDNAQNMLYLQMNNLKPEDTAVYYCARSTDVSPGLSSWWTYEYDVWGQGTLVTVSS",–,–,modest cross-reactivity,modest cross-reactivity,–,1.000 × 10^4,1.500 × 10^−3,159,high affinity; also recorded: weaker binding affinities,–,did not show clear specificity
